Experimental data taken from article PMC3942467.

Target: recombinant C-terminal fragment (residues 284-707) of nucleolin (nucleolin-C) (UniProt P19338)
Assay: SPR; Biacore 3000; nucleolin-C amine-coupled on CM4 chip (~540 RU); FGF1 or FGF2 10-320 nM in PBS with 0.1 mg/ml BSA, 0.005% P20, pH 7.3, 25 C, 30 ul/min; no fit to 1:1 Langmuir, constants by Interaction Map (two parallel processes); apparent/approximate

UniProt P19338, sequence (P19338 284-707): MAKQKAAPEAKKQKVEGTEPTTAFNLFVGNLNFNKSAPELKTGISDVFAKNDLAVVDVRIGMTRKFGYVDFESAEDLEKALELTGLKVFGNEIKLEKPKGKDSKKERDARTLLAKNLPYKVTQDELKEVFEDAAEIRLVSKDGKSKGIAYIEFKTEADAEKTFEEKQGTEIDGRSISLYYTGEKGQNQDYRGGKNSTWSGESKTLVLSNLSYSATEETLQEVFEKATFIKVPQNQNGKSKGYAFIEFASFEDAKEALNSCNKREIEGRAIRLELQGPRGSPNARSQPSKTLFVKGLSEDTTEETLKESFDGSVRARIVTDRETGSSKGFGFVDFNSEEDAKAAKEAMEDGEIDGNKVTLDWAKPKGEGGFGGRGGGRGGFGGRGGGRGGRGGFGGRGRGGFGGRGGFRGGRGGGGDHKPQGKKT

recombinant FGF1, truncated form (Ala-FGF1 21-154), wild type (ligand)
KD, stronger of two parallel binding processes (apparent): 40 nM | KD, weaker of two parallel binding processes (approximate): 480 nM | ka, stronger of two parallel binding processes: 18000 M⁻¹ s⁻¹ | ka, weaker of two parallel binding processes: 1.7e+06 M⁻¹ s⁻¹ | kd, stronger of two parallel binding processes: 0.0007 s⁻¹ | kd, weaker of two parallel binding processes: 0.83 s⁻¹
